Like-named read-outs stand apart in the source and are kept apart here. Square brackets hold non-standard residues; d marks the D form. Ends that are not written are not given here. pS = N[C@@H](COP(=O)(O)O)C(=O)O
What was measured:
[1] = 3P motif versus 2P motif; cited from earlier work
[2] = system: bone specific gravity (femurs and tibias); assay: Bone specific gravity in growing rats fed a high sucrose diet; format: in vivo, Sprague-Dawley rats; settings: high sucrose diet for 5 weeks, 6.25 or 3.125 mmol/kg of diet, both groups
From the text: A high sucrose diet is associated with a decrease in bone specific gravity in growing rats (reflecting reduced calcium and phosphorous content). See J. Nutr. 128:1807-1810 (1998). This decrease in bone density is reversed or prevented by carbamoyl phosphate supplementation. Sprague-Dawley rats were fed a high sucrose diet for 5 weeks, supplemented with carbarnoyl phosphate at either 6.25 or 3.125 mmol/kg of diet. […] Thus, carbamoyl phosphate modifies the effect of a high sucrose diet on bone growth.

[3] = cited from earlier work
[4] = calcium binding, human β-CN variants by number of phosphorylated Ser residues, calculated from published binding studies, read-out: Average dissociation Constant

Molecule | Kd [3, 4] [µM] | further results
3P variant: Reynolds (WO 98/40406) 3P variant having the sequence motif SerP-SerP-SerP-Glu-Glu (SEQ ID NO: 1) ([pS][pS][pS]EE) |  | calcium and phosphate binding strength relative to 2P synthetic homologues having the motif SerP-SerP-Glu-Glu [1]: 2.5 times
NC(=O)OP(=O)(O)O [carbamoyl phosphate] |  | specific gravities of femurs and tibias versus control rats receiving standard lab chow [2]: not significantly different; specific gravities of femurs and tibias versus rats on the same diet without carbamoyl phosphate [2]: significantly higher
bovine β-CN: Bovine beta-casein (protein, UniProt P02666 16-224, looked up) Beta-casein: RELEELNVPGEIVESLSSSEESITRINKKIEKFQSEEQQQTEDELQDKIHPFAQTQSLVYPFPGPIPNSLPQNIPPLTQTPVVVPPFLQPEVMGVSKVKEAMAPKHKEMPFPKYPVEPFTESQSLTLTDVENLHLPLPLLQSWMHQPHQPLPPTVMFPPQSVLSLSQSKVLPVPQKAVPYPQRDMPIQAFLLYQEPVLGPVRGPFPIIV |  | Kd ([3]; bovine β-CN, read-out: calcium dissociation constant): 650 µM
4P: Human β-CN variant with four SerP residues, all three Ser in the target sequence phosphorylated (protein, UniProt P05814 16-226, looked up, four phosphoserines) Beta-casein: RETIESLSSSEESITEYKQKVEKVKHEDQQQGEDEHQDKIYPSFQPQPLIYPFVEPIPYGFLPQNILPLAQPAVVLPVPQPEIMEVPKAKDTVYTKGRVMPVLKSPTIPFFDPQIPKLTDLENLHLPLPLLQPLMQQVPQPIPQTLALPPQPLWSVPQPKVLPIPQQVVPYPQRAVPVQALLLNQELLLNPTHQIYPVTQPLAPVHNPISV | 810 | 
5P: Human β-CN variant with five phosphorylated Ser residues (protein, UniProt P05814 16-226, looked up, five phosphoserines, Human β-CN variant with five phosphorylated Ser residues) Beta-casein: RETIESLSSSEESITEYKQKVEKVKHEDQQQGEDEHQDKIYPSFQPQPLIYPFVEPIPYGFLPQNILPLAQPAVVLPVPQPEIMEVPKAKDTVYTKGRVMPVLKSPTIPFFDPQIPKLTDLENLHLPLPLLQPLMQQVPQPIPQTLALPPQPLWSVPQPKVLPIPQQVVPYPQRAVPVQALLLNQELLLNPTHQIYPVTQPLAPVHNPISV | 420 | 
1P: Human β-CN variant with one phosphorylated Ser residue (protein, UniProt P05814 16-226, looked up, one phosphoserine, Human β-CN variant with one phosphorylated Ser residue) Beta-casein: RETIESLSSSEESITEYKQKVEKVKHEDQQQGEDEHQDKIYPSFQPQPLIYPFVEPIPYGFLPQNILPLAQPAVVLPVPQPEIMEVPKAKDTVYTKGRVMPVLKSPTIPFFDPQIPKLTDLENLHLPLPLLQPLMQQVPQPIPQTLALPPQPLWSVPQPKVLPIPQQVVPYPQRAVPVQALLLNQELLLNPTHQIYPVTQPLAPVHNPISV | 1170 | 
3P: Human β-CN variant with three phosphorylated Ser residues (protein, UniProt P05814 16-226, looked up, three phosphoserines, Human β-CN variant with three phosphorylated Ser residues) Beta-casein: RETIESLSSSEESITEYKQKVEKVKHEDQQQGEDEHQDKIYPSFQPQPLIYPFVEPIPYGFLPQNILPLAQPAVVLPVPQPEIMEVPKAKDTVYTKGRVMPVLKSPTIPFFDPQIPKLTDLENLHLPLPLLQPLMQQVPQPIPQTLALPPQPLWSVPQPKVLPIPQQVVPYPQRAVPVQALLLNQELLLNPTHQIYPVTQPLAPVHNPISV | 860 | 
2P: Human β-CN variant with two SerP residues, only two of three Ser in the target sequence phosphorylated (protein, UniProt P05814 16-226, looked up, two phosphoserines) Beta-casein: RETIESLSSSEESITEYKQKVEKVKHEDQQQGEDEHQDKIYPSFQPQPLIYPFVEPIPYGFLPQNILPLAQPAVVLPVPQPEIMEVPKAKDTVYTKGRVMPVLKSPTIPFFDPQIPKLTDLENLHLPLPLLQPLMQQVPQPIPQTLALPPQPLWSVPQPKVLPIPQQVVPYPQRAVPVQALLLNQELLLNPTHQIYPVTQPLAPVHNPISV | 1210 | 

Reference: patent US20030096741A1, “Enhanced mineral delivery” (priority 2000, published 2003)
